We go through five sequences from the Immune Epitope Database (IEDB).

For orientation: Kd means the equilibrium constant for the complex coming apart. Higher therefore signals weaker binding.

A value given as a limit tells only on which side of the number the result lay.

Assay [1] has as its target HLA-A*02:01. In words: IEDB peptide-MHC binding, purified MHC/competitive/fluorescence; filed as Kd, often an IC50 or EC50 that approximates it; ≥ and ≤ were set here for values at or beyond the usual limits of such assays.
A further assay addresses HLA-A*02:03. The assay is described as above.
The target of another assay is HLA-A*02:11. The description is as above.
In another assay the target is HLA-A*02:12. Described as above.
The target of another assay is HLA-A*02:16. The assay is described as above.
In a further assay the target is HLA-A*02:19. Described as above.
Assay [2] has as its target HLA-A*03:01. The description is as above.
Another assay has as its target HLA-A*29:02. The description is as above.
For assay [3], the target named is HLA-A*68:02. Described as above.
For assay [4], the target named is HLA-B*15:01. The assay is described as above.
For the next assay, the target named is HLA-B*18:01. Described as above.
The target of another assay is HLA-B*27:03. Described as above.
Another assay addresses HLA-B*39:01. Described as above.
The target in assay [5] is HLA-B*46:01. Described as above.
Another assay concerns the target HLA-B*51:01. The description is as above.
The target in assay [6] is HLA-B*57:01. Described as above.
In the next assay the target is HLA-A*01:01. In words: IEDB peptide-MHC binding, purified MHC/direct/fluorescence; filed as Kd, often an IC50 or EC50 that approximates it; ≥ and ≤ were set here for values at or beyond the usual limits of such assays. As to conditions: source organism: Brucella abortus.
The target of assay [7] is HLA-A*02:01. The assay is described as above. As to conditions: source organism: Brucella abortus.
Assay [8] addresses HLA-A*03:01. Described as above. As to conditions: source organism: Brucella abortus.
The target in the next assay is HLA-A*11:01. The assay is described as above. As to conditions: source organism: Brucella abortus.
Another assay concerns the target HLA-A*26:02. Described as above. As to conditions: source organism: Brucella suis 1330.
The next assay concerns the target HLA-A*31:01. Described as above. As to conditions: source organism: Brucella abortus.
Assay [9] concerns the target HLA-A*68:02. Described as above. As to conditions: source organism: Brucella abortus.
The target of assay [10] is HLA-A*69:01. Described as above. As to conditions: source organism: Brucella abortus.
The target in a further assay is HLA-B*07:02. Described as above.
Another assay addresses HLA-B*08:02. The description is as above. As to conditions: source organism: Brucella suis 1330.
The target of assay [11] is HLA-B*15:01. Described as above.
Another assay addresses HLA-B*15:02. The description is as above.
The next assay concerns the target HLA-B*15:09. Described as above. As to conditions: source organism: Brucella suis 1330.
Assay [12] addresses HLA-B*15:17. The description is as above. As to conditions: source organism: Brucella abortus.
For another assay, the target named is HLA-B*27:05. The assay is described as above. As to conditions: source organism: Brucella abortus.
Assay [13] concerns the target HLA-B*46:01. The assay is described as above.
For another assay, the target named is HLA-B*48:01. The assay is described as above. As to conditions: source organism: Brucella abortus.
Assay [14] deals with HLA-B*57:01. Described as above. As to conditions: source organism: Brucella abortus.
A further assay addresses HLA-B*58:01. The assay is described as above. As to conditions: source organism: Brucella abortus.
Another assay concerns the target HLA-A*23:01. In words: IEDB peptide-MHC binding, purified MHC/competitive/fluorescence; filed as Kd, often an IC50 or EC50 that approximates it; ≥ and ≤ were set here for values at or beyond the usual limits of such assays.
The next assay has as its target HLA-A*24:03. The description is as above.
Another assay addresses HLA-A*26:01. The assay is described as above.
Assay [15] addresses HLA-A*69:01. Described as above.
For a further assay, the target named is HLA-B*35:01. In words: IEDB peptide-MHC binding, purified MHC/direct/fluorescence; filed as Kd, often an IC50 or EC50 that approximates it; ≥ and ≤ were set here for values at or beyond the usual limits of such assays. As to conditions: source organism: Escherichia coli O157:H7 str. EC869.
In assay [16] the target is HLA-B*15:17. In words: IEDB peptide-MHC binding, purified MHC/competitive/fluorescence; filed as Kd, often an IC50 or EC50 that approximates it; ≥ and ≤ were set here for values at or beyond the usual limits of such assays. As to conditions: source organism: Cryptosporidium parvum Iowa II.
Setting [17] is: source organism: Giardia lamblia ATCC 50803.
The mark [18] stands for this setting: source organism: Brucella abortus.
Where [19] appears, read: source organism: Entamoeba dispar SAW760.
[20] abbreviates: source organism: Escherichia coli O157:H7 str. EC869.
[21] abbreviates: source organism: Escherichia coli O157:H7.
Where [22] appears, read: source organism: Cryptosporidium parvum Iowa II.

On to ELLDHLLLF, for which the Kd with HLA-A*02:01 [1] (setting [17]) is not below 20 µM; with HLA-A*02:03 (setting [17]) it was not below 20 µM; with HLA-A*02:11 (setting [17]) it was not below 20 µM; with HLA-A*02:12 (setting [17]) it was not below 20 µM; in the assay with HLA-A*02:16 (setting [17]) it was not below 20 µM; with HLA-A*02:19 (setting [17]), 0.98 µM. Moreover, the Kd is not below 20 µM with HLA-A*03:01 [2] (setting [17]); 0.0161 µM with HLA-A*29:02 (setting [17]); not below 20 µM in the assay with HLA-A*68:02 [3] (setting [17]); not below 20 µM in the assay with HLA-B*15:01 [4] (setting [17]); not below 20 µM with HLA-B*18:01 (setting [17]); not below 20 µM in the assay with HLA-B*27:03 (setting [17]). Moreover, the Kd with HLA-B*39:01 (setting [17]), in the assay with HLA-B*46:01 [5] (setting [17]), with HLA-B*51:01 (setting [17]) and with HLA-B*57:01 [6] (setting [17]) was not below 20 µM in each case.

As for GLAEKPNDY, the Kd with HLA-A*01:01, in the assay with HLA-A*02:01 [7], with HLA-A*03:01 [8], in the assay with HLA-A*11:01, in the assay with HLA-A*26:02 and with HLA-A*31:01 was not below 20 µM each time. The Kd in the assay with HLA-A*68:02 [9] is not below 20 µM; with HLA-A*69:01 [10], not below 20 µM; with HLA-B*07:02 (setting [18]), not below 20 µM; with HLA-B*08:02 it was not below 20 µM; in the assay with HLA-B*15:01 [11] (setting [18]) it was 0.947 µM; with HLA-B*15:02 (setting [18]) it was 2 µM. Further, the Kd in the assay with HLA-B*15:09, in the assay with HLA-B*15:17 [12], with HLA-B*27:05, in the assay with HLA-B*46:01 [13] (setting [18]), with HLA-B*48:01 and with HLA-B*57:01 [14] was not below 20 µM throughout. Moreover, the Kd in the assay with HLA-B*58:01 is not below 20 µM.

KGFFRVFKK: the Kd with HLA-A*02:01 [1] (setting [19]), in the assay with HLA-A*02:03 (setting [19]), in the assay with HLA-A*02:11 (setting [19]), with HLA-A*02:12 (setting [19]), with HLA-A*02:16 (setting [19]) and with HLA-A*02:19 (setting [19]) was not below 20 µM each time. Further, the Kd with HLA-A*03:01 [2] (setting [19]) is 0.0049 µM; with HLA-A*23:01 (setting [19]), not below 20 µM; with HLA-A*24:03 (setting [19]), not below 20 µM; with HLA-A*26:01 (setting [19]), not below 20 µM; with HLA-A*29:02 (setting [19]) it was 0.189 µM; in the assay with HLA-A*68:02 [3] (setting [19]) it was not below 20 µM. The Kd with HLA-A*69:01 [15] (setting [19]), with HLA-B*15:01 [4] (setting [19]), with HLA-B*18:01 (setting [19]), in the assay with HLA-B*39:01 (setting [19]), in the assay with HLA-B*46:01 [5] (setting [19]) and with HLA-B*51:01 (setting [19]) was not below 20 µM throughout. Moreover, the Kd with HLA-B*57:01 [6] (setting [19]) was not below 20 µM.

Regarding NIAAPYLPF, the Kd with HLA-B*07:02 (setting [20]) was 2.21 µM; with HLA-B*15:01 [11] (setting [21]), 0.107 µM; with HLA-B*15:02 (setting [20]), 0.013 µM; in the assay with HLA-B*35:01, 0.01 µM; with HLA-B*46:01 [13] (setting [21]) it was not below 20 µM.

Take RLKHIFLIF: the Kd with HLA-A*02:01 [1] (setting [22]), with HLA-A*02:03 (setting [22]), with HLA-A*02:11 (setting [22]), in the assay with HLA-A*02:12 (setting [22]), with HLA-A*02:16 (setting [22]) and with HLA-A*02:19 (setting [22]) was not below 20 µM in each case. For the same sequence, the Kd with HLA-A*03:01 [2] (setting [22]), with HLA-A*23:01 (setting [22]), with HLA-A*24:03 (setting [22]), with HLA-A*26:01 (setting [22]), with HLA-A*29:02 (setting [22]) and in the assay with HLA-A*68:02 [3] (setting [22]) was not below 20 µM each time. Also, the Kd in the assay with HLA-A*69:01 [15] (setting [22]), in the assay with HLA-B*15:17 [16], with HLA-B*18:01 (setting [22]), with HLA-B*27:03 (setting [22]), with HLA-B*39:01 (setting [22]) and in the assay with HLA-B*46:01 [5] (setting [22]) was not below 20 µM each time. The Kd in the assay with HLA-B*51:01 (setting [22]) and in the assay with HLA-B*57:01 [6] (setting [22]) was not below 20 µM throughout.
